Test results taken from the supplement of paper PMC12636428.

These sequences were tested on Saccharomyces cerevisiae (assay: transcriptional activation domain activity (GFP:mCherry ratio, weighted mean of sorted bins, harmonized to initial dataset scale) (arbitrary fluorescence ratio units); higher = stronger transcriptional activation). Details: beta-estradiol 1 µM; induction time 4 h.
Outline: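 After a 1:5 dilution into SC with 1 uM beta-estradiol and 4 hours at 30 °C, yeast diploids carrying a GFP reporter and URA3-integrated barcoded tiles were sorted into 8 bins by GFP:mCherry ratio. The tiles were fused to an estradiol-inducible synthetic transcription factor. Barcodes were sequenced, tiles below 50 reads were discarded, and activation activity was taken as the read-weighted mean of bin median fluorescence, averaged across barcodes and linearly mapped onto the initial dataset scale.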
“MGYYVVLLTELLISCLCSPSLLYSPFLLICDSFPCSRRVFKLAFILFYILIVT” was tested, and the “transcriptional activation domain activity” value was 43400.
For “MSTNERKKQRFVKSIHKEKKNTACCSSTNVIGTSKLSSPVIAVVVVVVVVCWG”, the “transcriptional activation domain activity” value was 45100.
With “YALIHFFRLYRSGHGPIRMFFLHIQALYNLFNLVFSWFALANLWLAFSIIIRL” the “transcriptional activation domain activity” value was 75800.
In the case of “ILMLFLGCLVICDLAFNIIVTILAFTTGFTHLLLSLVPTIPPPNCFLVHWQNH”, the “transcriptional activation domain activity” value is reported as 54600.
“MAQVAVFVVHKFLYGIIPLFEISTCAYFPLLVSLWHLNYLLFYAVMFMRLIIL” was tested, and the “transcriptional activation domain activity” value was 75000.
In the case of “TSLRLVMFQITFLDLFFKAYGSNIARLDNNYGFPDKQLPERMVEEVKAIYKIN”, the “transcriptional activation domain activity” value is reported as 56500.
For “SGNPPNVVMPPIVCPYSPIIIISYVVTYFFLHHFGGLIGWLQFLSLLLQSLMV”, the “transcriptional activation domain activity” value was 51000.
In the case of “MLMAWVIHAKCSAVPQCPPRPAVRSYIGRITLSLIIRARCILEMIVFPTFICW”, the “transcriptional activation domain activity” value is reported as 55600.
In the case of “FYAMVHWYKIFQSGHSIVRIFLLLIEFLYNLISLVFSWFSLANFYLCYYFLYH”, the “transcriptional activation domain activity” value is reported as 49600.
“FMSDVGILRWSKLGMPIQSLYQAIWLTFWCSFPFIRDWSWTAQVFFTLHLLSI” was tested, and the “transcriptional activation domain activity” value was 43100.
With “FLFFFFLLLFLLYSSLPLPPFLYPSLPLCRFSLFYYYLLLWFHFPCFSPFFLF” the “transcriptional activation domain activity” value was 57900.
With “KHPQNTTTDIENEVENPVTDDNGNLKLELPDNLDNADFSKLLEFDAKNDEALF” the “transcriptional activation domain activity” value was 33600.
In the case of “NQLAEAHALALLHLEQRLNIAIELPIQKFILSHLPWLMPVLAKIYLSHIIVGV”, the “transcriptional activation domain activity” value is reported as 57100.
With “MWWALCFFFFLFIFVILGFVGLLVCWFVGWLAGTFVGFSGSWFSFWVAWVVWV” the “transcriptional activation domain activity” value was 60500.
With “APIILGFSCGVCIHHLLACCIFVMIFIIRIFDPVYIPSMVLLFLCSCLSDRHG” the “transcriptional activation domain activity” value was 69700.
For “LIVVTLSWDVAVIITFLKHRITLRRLKMQSFLSLSFLFKMLIICIFRFFIGVC”, the “transcriptional activation domain activity” value was 88200.
For “YRISLAILQLCKDHLLQSCPTNSEILAFLLHIPHDYLTADVLLDTAFHIKLSK”, the “transcriptional activation domain activity” value was 54000.
With “GIESAGLEVITAQQLEQYAKDQKVLSNCMERNGITAVLCVGLRYIACLIMIIY” the “transcriptional activation domain activity” value was 66200.
For “MLLTVYMFIIVFSFFICYHYINLVLQILIAGLLYGLSYVRFSMNWIIYFYNQC”, the “transcriptional activation domain activity” value was 78400.
In the case of “TNTGFGASNTPAGGAGGGGGIFGSGTSGFGGGTSAFGAANNNNAFGAKPAFGA”, the “transcriptional activation domain activity” value is reported as 45600.
In the case of “MFFIIILFLVIYSGKISSNFLSFLYRLLLFMLISAQLSVLHCYCLYIFHRCYC”, the “transcriptional activation domain activity” value is reported as 30900.
In the case of “EEKKEDDWQVLDGKEKAAGGAGEGDAAEGAEGGATTEGEKKDDAGGAPAGEGA”, the “transcriptional activation domain activity” value is reported as under 6570.
With “ILLYHPNFLLIAISILYIIWCFMVLIMFCVVLPTAFLLLRAALFYPPHGREFI” the “transcriptional activation domain activity” value was 25900.
“FCMLNHWYARSWGTYLWLGLLLTDLDVTYKYKKWLYAHPGTYYPLLTFAWLCV” was tested, and the “transcriptional activation domain activity” value was 63000.
In the case of “LSAFCCTLVDRYLLSTEYSHFSICLVRSVLNWVARGISSLLLLHFFLLLVMYE”, the “transcriptional activation domain activity” value is reported as 50600.
With “ICHYKGSLIGKHFKSLSQVMPFIIYDLVPSTVLNAWTIMGKLIVLIWHTKILN” the “transcriptional activation domain activity” value was 38600.
“RASAAVPRRRDSTDSSDSEGDIRAAMAAARRKQAKVPAPRPVVENRPAPANTP” was tested, and the “transcriptional activation domain activity” value was 36300.
For “KVSFLFGVWFFFSFEVLGFFDFFPSFLSFRRIFFIIFILYFIIYLYVVFFVSF”, the “transcriptional activation domain activity” value was 73700.
With “VIMCTALGIKSVKFEFANLCLVSIEHIFALFFYPMAVIICPSFLLHIATFFYI” the “transcriptional activation domain activity” value was 83900.
“APATTAAATTSATPAVTSTLLAKPATTTTSTATPAPAAAGSLFGGAKAAGTTA” was tested, and the “transcriptional activation domain activity” value was 37000.
For “LGVVFWCWCGLLGLKIQLYAGSYIKFRSVVIVMLIVLEIFEISINVSVCVIFH”, the “transcriptional activation domain activity” value was 53000.
With “GLRLIYVVNHGAWGKGPPLATIWVYVIVQLNLLPAVLSLVVIAGFVQYLNLKI” the “transcriptional activation domain activity” value was 77200.
For “CFSLCFSLCFPFAFPLLFPFFPLLFPLLFPLLSLCFSLCFSLLPFPLELPFLF”, the “transcriptional activation domain activity” value was 37100.
With “ADASSSRPQQSKGDKGRSRAPGADRKQESSSSSARASGTGGNNTNGGSSSNNN” the “transcriptional activation domain activity” value was 34100.
With “AFMVSRMVILPFVYSLPVLYDILRPFTAHFLRPKFTLTFLWTHFDLITRVFFL” the “transcriptional activation domain activity” value was 53400.
“MSTPKVVASATRQINAVVVSAGLMQKTVKARVGVQKWNRHIKKHFNRSTNVLV” was tested, and the “transcriptional activation domain activity” value was 53100.
In the case of “EVDMTPADALDDFDLEMLGDVESPSPGMTHDPVSYGALDVDDFEFEQMFTDAL”, the “transcriptional activation domain activity” value is reported as 112000.
With “RKTGGRSKRTTRGEGKKEEGRSPTKERTTKGARRSKEETRAGGRTSQAEERGK” the “transcriptional activation domain activity” value was 33900.
In the case of “LRWVRSNWRSNLTSLSELHMWWNYPWSLYAVFQTTITQWAFLLDCLLFACFYF”, the “transcriptional activation domain activity” value is reported as 33700.
In the case of “MSTEEQADGAPSSASDAGLKIWSCVTCRRRKVRCDRRDPCSNCVRAAIDCHYP”, the “transcriptional activation domain activity” value is reported as 30100.
In the case of “MCILSLFTAWAGLTLFTCIFSFFLLCIVNALLGQNGVGGLLTARRFNTILRVC”, the “transcriptional activation domain activity” value is reported as 54400.
With “MCEGDFCVFFCVCVCVCVCLCVLFCFLFWFLFWWLLFFFLVMLFLAVGVFVYI” the “transcriptional activation domain activity” value was 35400.
In the case of “GNATAGAGAGQAGEAKGKGKAKAKAKGKEKKGKGKAKGKANGKNNQGAAAGGA”, the “transcriptional activation domain activity” value is reported as 46300.
In the case of “MREKDNDETTTGIFFLFLFLDKILLLFAWYLPWSSSQFLRLLFSLVLFWAVTL”, the “transcriptional activation domain activity” value is reported as 45300.
With “VASVLVFICHYTECNWGDLTHFYGVNKEHPGSFIQMPYIRLIYSGRPMVHIFF” the “transcriptional activation domain activity” value was 29900.
For “ENASEPQKQEAEEKPKSTTAASTSVPRSSKPSVEAKPVRKSRRTGAQRRAPSQ”, the “transcriptional activation domain activity” value was 38800.
“VEANTSANLHFDNVIPTVTNADIRKKRSNWDNMMTSGPVEDFWTINDDYGFLT” was tested, and the “transcriptional activation domain activity” value was 141000.
In the case of “MFLCFFHVFMLYLCHYVIVMLIYFLIYFMLFLLFMFLNTILQYEFLILHFCFI”, the “transcriptional activation domain activity” value is reported as 47500.
In the case of “QITNRILPSPAAVRYSGLIPLLVLVLVLPLFFLFFLFFFFFLFLFLFFLVLLY”, the “transcriptional activation domain activity” value is reported as 58800.
“EKDKENDKGEKGEGEKKGENRRGRRRGGRGRGGGGDKDKEKEKDGGGGGGAKR” was tested, and the “transcriptional activation domain activity” value was 47000.
With “FCRALIHSQGEGPKSIYESSVISLTEAARAIINISRRSFTLHQTLTCRMWYFL” the “transcriptional activation domain activity” value was 49900.
In the case of “EIAVEEPAQPMDVDGAVEAETDATTSKQDKKDKKKKKKASKESKVEAEPEAAA”, the “transcriptional activation domain activity” value is reported as 48700.
In the case of “LLVLLLVLLLVLLLILLLILLILLVYLLLLLLLVLLFFLLLLLLLFTFILHFL”, the “transcriptional activation domain activity” value is reported as 46200.
For “KVDNGGKVDNSGKVDNGRKVDSRKIDDGRKVDDGRNVDNRGRVDEGGGVVKGG”, the “transcriptional activation domain activity” value was 19500.
With “RQIESMVAPCLVELRIWNIGAYANLCEYSTWLRLWWIRWSMYGIQFQDKTGKP” the “transcriptional activation domain activity” value was 61100.
With “AKKAKQEATTEGGEEGSTGKTAKAKETPPTEQKEGGEKKAKATKARGKAGKEA” the “transcriptional activation domain activity” value was 27300.
With “LPTGSLLPGVGPLRSLIFDLELTRHIVDAYDLYDILFHPRTLPLLCHLTYLHI” the “transcriptional activation domain activity” value was 41800.
For “PSPVLCFRQLCFLVYLIFFNFLLLFCLFAKAEGGIPSCPLQPLDSLYFSLQGF”, the “transcriptional activation domain activity” value was 49400.
In the case of “MTNFSVALNVHTQIAYHNAEALRLKCMYNASSLLAKLPPHVLALIFLNHANWF”, the “transcriptional activation domain activity” value is reported as 36200.
With “GPLRVAQRPRERPGLRAARVPAEGQEAEGPGRLGRARVGGGVPRGRAAARVVV” the “transcriptional activation domain activity” value was 34200.
For “TSSSTAAPAVKRDEKPVKEKKPPAPQAPLEPGAVPEKRKRGRPRKVVSPPVPV”, the “transcriptional activation domain activity” value was 49500.
